Measured values taken from patent US20250195679A1 (SHANGHAI HUAOTA BIOPHARMACEUTICAL, published 2025).
Like-named read-outs stand apart in the source and are kept apart here.

T1: CD73 on the surface of Calu6 cells (UniProt P21589 27-549)
T1 sequence (looked up): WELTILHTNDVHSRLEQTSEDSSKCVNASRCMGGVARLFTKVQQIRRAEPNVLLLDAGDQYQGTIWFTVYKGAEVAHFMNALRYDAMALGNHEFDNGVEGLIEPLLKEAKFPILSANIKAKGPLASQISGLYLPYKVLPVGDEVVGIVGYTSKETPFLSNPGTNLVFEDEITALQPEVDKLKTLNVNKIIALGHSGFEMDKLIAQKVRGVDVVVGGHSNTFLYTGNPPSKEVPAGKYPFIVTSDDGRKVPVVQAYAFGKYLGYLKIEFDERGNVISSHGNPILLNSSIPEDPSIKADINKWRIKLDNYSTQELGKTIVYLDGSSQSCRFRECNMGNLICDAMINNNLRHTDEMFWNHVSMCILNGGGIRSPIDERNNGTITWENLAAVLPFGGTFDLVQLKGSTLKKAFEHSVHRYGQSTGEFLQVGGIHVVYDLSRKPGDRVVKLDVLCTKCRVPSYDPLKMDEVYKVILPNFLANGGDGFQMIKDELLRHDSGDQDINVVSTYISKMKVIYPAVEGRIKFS

T2: human CD73 protein (ACRO Biosystems, Cat. No. CD3-H52H7) (human, UniProt P21589 27-547)
T2 sequence (looked up): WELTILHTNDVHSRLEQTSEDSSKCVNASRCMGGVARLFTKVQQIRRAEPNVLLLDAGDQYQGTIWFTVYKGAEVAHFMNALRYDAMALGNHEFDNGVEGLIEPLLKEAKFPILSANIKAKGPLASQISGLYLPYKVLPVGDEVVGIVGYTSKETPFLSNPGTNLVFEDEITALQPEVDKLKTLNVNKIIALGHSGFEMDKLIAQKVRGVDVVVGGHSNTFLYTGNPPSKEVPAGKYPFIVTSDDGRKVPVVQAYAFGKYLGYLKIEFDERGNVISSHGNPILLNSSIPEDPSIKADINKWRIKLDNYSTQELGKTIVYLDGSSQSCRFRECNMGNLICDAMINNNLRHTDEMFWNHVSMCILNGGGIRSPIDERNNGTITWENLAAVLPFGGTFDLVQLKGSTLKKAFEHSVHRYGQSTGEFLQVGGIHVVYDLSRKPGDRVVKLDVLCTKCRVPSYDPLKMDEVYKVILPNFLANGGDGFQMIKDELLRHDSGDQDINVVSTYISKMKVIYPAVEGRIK

T3: human CD73 expressed on CHOK1-huCD73-3F4 cells (human, UniProt P21589 27-549)
T3 construct: whole, on cells; also called cells expressing human CD73 (CHOK1-huCD73-3F4, Huabo Biopharm); CD73 antigen on the cell surface
T3 sequence (looked up): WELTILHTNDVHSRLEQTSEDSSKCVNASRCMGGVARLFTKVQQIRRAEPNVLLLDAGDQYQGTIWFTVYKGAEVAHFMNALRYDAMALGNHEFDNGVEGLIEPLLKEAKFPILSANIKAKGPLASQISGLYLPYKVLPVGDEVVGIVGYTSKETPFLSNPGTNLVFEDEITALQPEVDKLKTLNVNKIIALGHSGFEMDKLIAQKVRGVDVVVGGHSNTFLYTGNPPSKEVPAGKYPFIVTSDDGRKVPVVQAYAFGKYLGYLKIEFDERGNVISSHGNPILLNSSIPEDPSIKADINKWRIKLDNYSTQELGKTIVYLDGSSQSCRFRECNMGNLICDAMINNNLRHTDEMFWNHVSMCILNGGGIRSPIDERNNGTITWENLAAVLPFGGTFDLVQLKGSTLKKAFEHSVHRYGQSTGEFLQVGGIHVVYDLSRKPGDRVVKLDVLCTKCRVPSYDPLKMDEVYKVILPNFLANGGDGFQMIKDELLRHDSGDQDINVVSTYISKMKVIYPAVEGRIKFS


Columns and labels:
[1] = target: T1, CD73 on the surface of Calu6 cells; experiment: cell-based or functional assay
[2] = target: T1, CD73 on the surface of Calu6 cells; experiment: flow cytometry on Calu6 cells, antibody at 1 ug/mL, kept at 4 C, PE anti-human IgG Fc detection
Method: The endocytosis efficiency of monoclonal antibodies 900698 and 900725 was compared through an endocytosis assay, with the procedures as follows: Anti-CD73 antigen-binding proteins such as the CD73 positive control antibody BMS-986179, 900698, and 900725 were diluted to 1 μg/mL with a PBS solution, with 2 replicate wells set up for each concentration. Calu6 cells in the logarithmic growth phase were taken and prepared into a cell suspension at 2× 10⁵ cells/mL. The cell suspension was then added at 100 μL (about 20000 cells) per well to a 96-well U-bottom plate and centrifuged at 300 g for 3 min, and then the supernatant was discarded. Then, the diluted antigen-binding proteins were each added at 100 μL/well to resuspend the cells, and the mixture was mixed uniformly and incubated at 4° C. for 30 min. After the incubation was completed, the mixture was centrifuged at 300 g for 3 min, and then the supernatant was discarded. The cells were then resuspended in 1% BSA, with half incubated at 37° C. and the other half at 4° C., for an incubation time of 5 h. After the incubation was completed, the wells corresponding to the specified time were removed. The cells in these wells were centrifuged at 300 g for 3 min, and then the supernatant was discarded. PE anti-hulgG Fc (1:200) was then added at 50 μL/well, and the mixture was mixed uniformly and allowed to react at 4° C. for 30 min. After the incubation was completed, the cells were washed twice and centrifuged at 300 g for 3 min, and the fluorescence intensity was detected by flow cytometry. The assay results for the endocytosis of CD73 on the cell surface induced by the anti-CD73 antigen-binding proteins are shown in Table 5 below and FIG. 9. […] 34%. In FIG. 9, the results for BMS-986179, 900725, and 900698 are represented as 1-3, respectively, and NC indicates the result for the condition that only a 1% BSA solution was added without any antibody or antibody-drug conjugate.

[3] = target: T2, human CD73 protein (ACRO Biosystems, …); experiment: cell-based or functional assay
[4] = target: T4, monkey CD73 protein (Novoprotein, Cat. No. CI21) (monkey); experiment: SPR (Biacore T200), antibody captured on protein A chip, CD73 as analyte, 1:1 model
T4 construct: Bought protein
Method: (§1) The binding kinetics of the antibody-drug conjugate 1 and the antibody-drug conjugate 2 prepared in Example 1 and the 900698 naked antibody with a human CD73 protein (manufacturer: ACRO Biosystems, Cat. No. CD3-H52H7) and a monkey CD73 protein (manufacturer: Novoprotein, Cat. No. CI21) were assayed using Biacore (GE, model: T200), with an assay buffer of HBS-EP+ (pH 7.4) and a protein A chip (manufacturer: GE, Cat. No. 29-1275-56).
(§2) The temperature for the sample compartment and the flow path was set to 25° C. The protein A chip captured each antigen-binding protein as a ligand, fixing about 100 RU. The human CD73 protein was diluted with the assay buffer to a series of concentrations of 50 nM, 25 nM, 12.5 nM, 6.25 nM, 3.12 nM, and 1.57 nM, serving as analytes, and the assay buffer was used as a 0 concentration control. At a flow rate of 30 μL/min, association was conducted for 120 s, and dissociation was conducted for 600 s. Glycine (10 mM, pH 1.5) was used for regeneration at a flow rate of 50 μL/min for 60 s in a multi-cycle kinetic assay. A 1:1 binding model was used, and the Fit Local mode was selected to determine the association rate constant (ka), dissociation rate constant (kd), and equilibrium dissociation constant (KD).

[5] = target: T2, human CD73 protein (ACRO Biosystems, …); experiment: as above
Method: as §1, §2

[6] = target: T3, human CD73 expressed on …; experiment: flow cytometry (PE-MFI, PE-goat anti-human-Fc) on CHOK1-huCD73-3F4 cells expressing human CD73; four-parameter fit table under the curves, unit from the concentration axis
Method: The binding activity of the antibody-drug conjugate 1 and the antibody-drug conjugate 2 prepared in Example 1 and the 900698 naked antibody to cells expressing human CD73 (CHOK1-huCD73-3F4, Huabo Biopharm) was assayed.
All antigen-binding proteins were diluted to 30 μg/mL with a solution of 1% BSA in PBS (1% BSA/PBS), followed by a 3-fold dilution across 10 gradients. The diluted proteins were each added at 20 μL per well to a 96-well U-bottom plate, with a negative control (adding only 1% BSA/PBS) set up simultaneously. A suspension of cells expressing human CD73 (CHOK1-huCD73-3F4, Huabo Biopharm) in the logarithmic growth phase was taken and centrifuged (1000 rpm×5 min), and then the culture medium was discarded. The cells were resuspended in 1% BSA/PBS until the viable cell density was 1×10⁶ cells/mL, then added at 20 μL (2×10⁴ cells) per well to the 96-well U-bottom plate containing the anti-CD73 antigen-binding proteins, and incubated at room temperature for reaction for 30 min. The reacted cells in the 96-well U-bottom plate were resuspended in 1% BSA/PBS and centrifuged (300 g×3 min), and then the supernatant was discarded. This washing process was performed once. Then, a 1:200 dilution of PE-goat anti-human-Fc (Jackson ImmunoResearch, #109-115-098) was added, and the cells were incubated in the dark at room temperature for reaction for 15 min. The reacted cells in the 96-well U-bottom plate were further resuspended in 1% BSA/PBS and centrifuged (300 g×3 min), and then the supernatant was discarded. This washing process was performed 3 times. Finally, the cells were resuspended in 100 μL of 1% BSA/PBS per well, and the fluorescence intensity in the PE channel was detected using a flow cytometer (BD, #Canto II).

[7] = target: T1, CD73 on the surface of Calu6 cells; experiment: cell-based or functional assay; remark: listed apart in the source

Binder	Endocytosis efficiency (%) [1] [%]	fluorescence intensity of surface antibody after 5 h at 37° C. (flow cytometry, Calu6 cells) [1]	fluorescence intensity at 4° C. [2]	IC50, inhibition of the enzymatic activity of recombinant CD73 (AMP/ATP, CellTiter-Glo signal) [3] [µg/mL]	Kd [4] [nM]	koff [4] [s⁻¹]	kon [4] [M⁻¹ s⁻¹]	Kd [5] [nM]	koff [5] [s⁻¹]	kon [5] [M⁻¹ s⁻¹]	EC50 [6] [µg/mL]	Endocytosis efficiency (%) [7] [%]
BMS-986179 (antibody, human IgG1, kappa, L234A L235A, V domains shown, also called CD73 positive control antibody BMS-986179) VH: QVQLVESGGGVVQPGRSLRLSCAASGFTFSNYGMHWVRQAPGKGLEWVAVILYDGSNKYYPDSVKGRFTISRDNSKNTLYLQMNSLRAEDTAVYYCARGGSSWYPDSFDIWGQGTMVTVSS VL: DIQMTQSPSSLSASVGDRVTITCRASQGISSWLAWYQQKPEKAPKSLIYAASSLQSGVPSRFSGSGSGTDFTLTISSLQPEDFATYYCQQYNSYPLTFGGGTKVEIKR	44.2	14400	25700	–	–	–	–	–	–	–	–	–
900725 antibody (antibody, V domains shown, It was detected with anti-human IgG Fc; also called anti-CD73 antibody 900725) VH: QVQLVQSGAEVKKPGASVKLSCKASGYTFTSYWIHWVRQAPGQGLEWIGMIHPNSGSTYYNEKFKGRATLTVDKSTSTAYMELSSLRSEDTAVYYCARYYGSDYEWYFDVWGQGTTVTVSS VL: DIQMTQSPSSMSASVGDRVTITCKASQNVRTAVVWYQQKPGKAPKALIYLASNRHTGVPDRFSGSGSGTDFTLTISSLQPEDFATYFCLQHWNYPYTFGQGTKLEIK	37.5	8710	13900	–	–	–	–	–	–	–	–	–
900698 antibody (antibody, V domains shown, embodiments say they may derive from human IgG1 and human Ig kappa; It was detected with anti-human Fc and captured on protein A; also called 900698 naked antibody; naked antibody 900698) VH: QVQLVESGGGLVKPGGSLRLSCAASGFTFSKYAMSWIRQAPGKGLEWVAEISSGGGYINYADSVKGRFTISRDNAKNSLYLQMNSLRAEDTAVYYCARAIYYYGSSYNYYAMDYWGQGTTVTVSS VL: DIQMTQSPSSLSASVGDRVTITCRASQDVGTAEAWYQQKPGKAPKLLIYWASTRHTGVPSRFSGSGSGTDFTLTISSLQPEDFATYYCQQYSSYPLTFGQGTKLEIK	96.3	359	8940	0.352	0.121	1.8e-05	148000	0.711	0.000104	147000	1.01	95.4
CD73 antibody-Mc-VC-PAB-DMEDA-PEG-SN38 (antibody, V domains shown, SN-38 conjugated through Mc-VC-PAB-DMEDA-PEG linker by cysteine conjugation; DAR about 7.8 for the whole antibody; conjugated cysteines not named, the constant regions that carry the conjugated cysteines are not; also called antibody-drug conjugate 1) VH: QVQLVESGGGLVKPGGSLRLSCAASGFTFSKYAMSWIRQAPGKGLEWVAEISSGGGYINYADSVKGRFTISRDNAKNSLYLQMNSLRAEDTAVYYCARAIYYYGSSYNYYAMDYWGQGTTVTVSS VL: DIQMTQSPSSLSASVGDRVTITCRASQDVGTAEAWYQQKPGKAPKLLIYWASTRHTGVPSRFSGSGSGTDFTLTISSLQPEDFATYYCQQYSSYPLTFGQGTKLEIK	–	–	–	0.587	0.0349	1.92e-06	55000	0.339	0.000129	381000	0.659	95.6
CD73 antibody-MP2-VC-PAB-DMEDA-PEG-SN38 (antibody, V domains shown, SN-38 conjugated through MP2-VC-PAB-DMEDA-PEG linker by cysteine conjugation; DAR about 7.8 for the whole antibody; conjugated cysteines not named, the constant regions that carry the conjugated cysteines are not; also called antibody-drug conjugate 2) VH: QVQLVESGGGLVKPGGSLRLSCAASGFTFSKYAMSWIRQAPGKGLEWVAEISSGGGYINYADSVKGRFTISRDNAKNSLYLQMNSLRAEDTAVYYCARAIYYYGSSYNYYAMDYWGQGTTVTVSS VL: DIQMTQSPSSLSASVGDRVTITCRASQDVGTAEAWYQQKPGKAPKLLIYWASTRHTGVPSRFSGSGSGTDFTLTISSLQPEDFATYYCQQYSSYPLTFGQGTKLEIK	–	–	–	0.553	0.252	0.000114	454000	0.354	0.000228	643000	0.67	95.8
